Reference: patent US20220306764A1 (NATIONAL INSTITUTE OF BIOTECHNOLOGY IN THE NEGEV, published 2022)

B1: NB13 (VHH)
VHH: QVQLQESGGGSVQTGGSLRLSCAASGYTASFSWIGYFRQAPGKEREGVAVINVGVGSTYYADSVKGRFTISRDNTENTISLEMNSLKPEDTGLYYCAGSLRWSRPPNPISEDAYNYWGQGTQVTVSS
notes: also called nanobody 13; not shown: His tag (NBs purified on Ni-NTA and detected with anti-His)
B2: NB8 (VHH)
VHH: QVQLQESGGGSVQAGGSLRLSCARSGWPYSTYSMNWFRQAPGKEREAVAGISSTMSGIIFAESKAGQFTISQDNAKNTVYLQMNNLKPEDTAIYYCAARRDYSLSSSSDDFDYWGQGTQVTVSS
notes: also called nanobody 8; PDB 6XXO; not shown: His tag (NBs purified on Ni-NTA and detected with anti-His)
B3: NB37 (VHH)
VHH: QVQLQESGGGSVEAGGSLRLSCARSGWPYSTYSMNWFRQAPGKEREAVAGISSTMSGIIFAESKAGQFTISQDNAKNTVYLQMNNLKPEDTAIYYCAARRDYSLSSSSDDFDYWGQGTQVTVSS
notes: also called nanobody 37; PDB 6XXP; not shown: His tag (NBs purified on Ni-NTA and detected with anti-His)
B4: NB7 (VHH)
VHH: QVQLQESGGGSVQAGGSLRLSCTAPGYTDSNYYMSWFRQAPGKEREWVAGVNTGRGSTSYADSVKGRFTISQDNAKNTMFLQMNSLKPEDTAIYYCAVAACHFCDSLPKTQDEYILWGQGTQVTVSS
notes: also called nanobody 7; anti-PSMA NB7; not shown: His tag (NBs purified on Ni-NTA and detected with anti-His)

Molecular target: T1, purified extracellular domain of PSMA (prostate-specific membrane antigen), residues 44-750 (UniProt Q04609 44-750)
T1 construct: range 44-750; The limits 44-750 are stated for the immunogen; Docking used PDB 1Z8L; also called soluble PSMA; monomeric PSMA
Experiment: SPR (ProteOn XPR36), NB immobilised, soluble PSMA as analyte, 1:1 Langmuir, 25 C
Description: The bottom curve in each sensogram represents the lowest concentration, while the top curve represents the highest concentration. A FACS analysis (n=3) was used to determine the binding of these NBs (0.1-1,000 nM) to PC3-PIP (PSMA⁺) cells (1E) and to PC3-flu (PSMA⁻) cells (1F). For convenience, each fluorescence value was normalized to the fluorescence values at the highest and lowest concentrations of PC3-PIP cells.
The affinity of each NB to PSMA was determined by using surface plasmon resonance (SPR) spectroscopy on a ProteOn XPR36 chip (Bio-Rad, CA). The chip was activated by using sulfo-NHS (0.1 M N-hydroxysuccinimide) and EDC [0.4 M 1-ethyl-3-(3-dimethylaminopropyl)-carbodiimide]. Each NB (0.2 μg) was immobilized in a 10 mM sodium acetate buffer, pH 5.0, at a flow rate of 30 μl/min. Bovine serum albumin (BSA) (3 μg) was immobilized on the chip as a negative control. Unbound esters were deactivated with 1 M ethanolamine HCl at pH 8.5. […] During this time, the association between the NBs and PSMA was measured. The dissociation was measured while flowing 50 μ1/min PBST (namely, a phosphate-buffered saline with 0.005% Tween). For each protein complex, a binding sensogram was generated by subtracting the values of the PSMA response to BSA from those of the PSMA response to the NBs. The dissociation constant (KD) was determined from the Langmuir 1:1 kinetic model. The temperature throughout the binding measurements was set at 25° C.

T1 sequence (Q04609 44-750 limits assumed): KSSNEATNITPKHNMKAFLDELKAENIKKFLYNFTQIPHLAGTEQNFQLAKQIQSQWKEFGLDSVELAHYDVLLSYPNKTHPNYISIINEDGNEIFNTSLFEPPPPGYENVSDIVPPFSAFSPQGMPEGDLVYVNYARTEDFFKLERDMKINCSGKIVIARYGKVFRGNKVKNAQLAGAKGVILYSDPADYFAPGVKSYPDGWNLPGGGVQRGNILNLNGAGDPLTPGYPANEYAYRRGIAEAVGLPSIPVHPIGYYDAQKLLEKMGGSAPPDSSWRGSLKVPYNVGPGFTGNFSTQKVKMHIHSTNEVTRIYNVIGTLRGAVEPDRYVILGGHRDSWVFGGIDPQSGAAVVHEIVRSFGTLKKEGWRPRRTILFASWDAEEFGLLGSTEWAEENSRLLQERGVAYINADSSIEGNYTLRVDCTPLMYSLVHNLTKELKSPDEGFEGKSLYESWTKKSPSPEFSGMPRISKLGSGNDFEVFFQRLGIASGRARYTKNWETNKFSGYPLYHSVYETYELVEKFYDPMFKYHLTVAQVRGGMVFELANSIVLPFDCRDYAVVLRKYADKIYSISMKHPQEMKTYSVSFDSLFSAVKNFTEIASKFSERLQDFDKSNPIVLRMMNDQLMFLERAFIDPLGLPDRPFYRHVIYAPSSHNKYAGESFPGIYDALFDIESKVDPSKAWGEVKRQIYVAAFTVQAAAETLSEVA

Row | Binder | Kd | koff | kon
1 | B1 | 0.6 nM | 2.2e-05 s⁻¹ | 36000 M⁻¹ s⁻¹
2 | B2 | 6 nM | 0.00012 s⁻¹ | 20000 M⁻¹ s⁻¹
3 | B3 | 3.4 nM | 7.5e-05 s⁻¹ | 22000 M⁻¹ s⁻¹
4 | B4 | 0.055 nM | 3.9e-05 s⁻¹ | 710000 M⁻¹ s⁻¹
